Measurements as given in article doi:10.64898/2025.12.10.693372 (bioRxiv, 2025).

Columns and labels:
[1] = target: T1, SARS-CoV-2 Omicron LP.8.1 spike (S-6P) (SARS-CoV-2 Omicron LP.8.1, S-GSAS/6P (furin cleavage site, residues 682–685) | F817P | A892P | A899P | …); test: cryo-EM structure; conditions: both partners purified
T1 construct: also called LP.8.1 S-6P; Omicron LP.8.1.1 spike (S-6P)

[2] = target: T2, SARS-CoV-2 Omicron JD.1.1 spike (S-6P) (SARS-CoV-2 Omicron JD.1.1, S-GSAS/6P (furin cleavage site, residues 682–685) | F817P | A892P | A899P | …); test: cryo-EM structure; conditions: both partners purified
T2 construct: also called JD.1.1 S-6P; Omicron JD.1.1 S-trimer (S-6P)

B1: ZL58 Fab (Fab, V domains shown)
VH: QLELVQSGGGLVQPGGSLRLSCAASEIAVSRNYMNWVRQGPGKGLEWVSIIYPGGSTFYADSVKGRFTISTDDSKNTLYLQMDSLSTDDTALYYCARQGPNGRNDFWGQGTLVTVSS
VL: DIQMTQSPSSLSASAGERVTITCQASQDINMYLNWYQQKPGKAPKLLIYDASNLETGVPSRFSGSGSVTEFTFTISSLQPEDIGTYYCHQYDSFPPTFGGGTKVDLK
stoichiometry N [1]: 3 Fabs per S-trimer

B2: R102-9 Fab (Fab, V domains shown)
VH: EVQLVESGGGLVQPGGSLRLSCAASGIIVSRNYMSWVRQAPGKRPEWVSLIYPGGSTFYADSVKGRFTISRDNSKNMLFLQMNSLRAEDTAVYYCARDLTIRGEASWGQGTLVTVSS
VL: EIVMTQSPATLSVSPGERATLSCRASQSFNSNLAWYQQKPGQAPRLLIYGASTRATGIPARFSGSGSGTEFTLTISSLQSEDFAVYYCQQYGDWPLWTFGQGTKVEIK
stoichiometry N [2]: 3 Fabs per S-trimer

B3: C092 Fab (Fab, V domains shown)
VH: QVQLVQSGAEVKKPGSSVKVSCKASGGSFTNHFISWVRQAPGQGLEWMGRIIPILGTANYAQNFQGRVMMTADKSTSTAYMELSSLRSEDTAVYYCARDSGYSGYGSTYYMDVWGKGTTVTVSS
VL: QSVLTQPPSVSGAPGQRVTISCTGSNSNIGAGYDVHWYQQLPGAAPKLLIYGNNNRPSGVPDRFSGSKSDTSASLAITGLQVEDEADYYCQSYDSSLSDSVFGSGTKVTVL
stoichiometry N [2]: 3 Fabs per S-trimer

B4: ZL525 Fab (Fab, V domains shown)
V domain 1: QVQLVQSGAEVKKPGSSMKVSCQASGGTFSSHPISWIRQAPGQGLEWMGRIIPIAGMTDYGQKFQGRITITADTSTSTSYVELRGLRSQDTAFYYCAKDVGYSDYGSAYYFHTWGQGTLITVSS
V domain 2: QSVLTQPPSVSGAPGQRVTISCTGSNSNIGAGYDVHWYQQLPGTAPKLLIYRNNKRPSGVPDRFSGSKSDTSASLAITGLQAEDEAHYYCQSFDSSLGGSLFGGGTKLAVL
stoichiometry N [1]: 3 Fabs per S-trimer
